Results reported in PMC10663602.

Tests used:
[1] = target: hFcα-tFcµ-chi1 (human | Oncorhynchus mykiss (rainbow trout)); experiment: SEC; preparative SEC (Superose 6 Increase 10/300) after Ni-NTA; share of pIg and mIg in the total protein purified (Supplementary Fig. 6)
[2] = target: hFcα-tFcµ-chi2 (human | Oncorhynchus mykiss (rainbow trout)); experiment: as above

percent of the total protein purified that is pIg [1] [%] | percent of the total protein purified that is pIg [2] [%] | Binder
< 30 | – | hFcα-tFcµ-chi1 (protein, here or on the partner: N-glycosylated; polymeric, about a dimer by SEC-MALS. Table prints the same sequence for chi1 and chi2 / N-glycosylated; polymeric, about a dimer by SEC-MALS. Table prints the same sequence for chi1 a) CHPRLSLHRPALEDLLLGSEANLTCTLTGLRDASGVTFTWTPSSGKSAVQGPPERDLCGCYSVSSVLPGCAEPWNHGKTFTCTAAYPESKTPLTATLSKSGNTFRPEVHLLPPPSEELALNELVTLTCLARGFSPKDVLVRWLQGSQELPREKYLTWASRQEPSQGTTTFAVTSILRVAAEDWKKGDTFSCMVGHEALPLAFTNIIMRTIDRTSNQPNLVNLSLNVPQRCMAQ
– | < 30 | hFcα-tFcµ-chi2 (protein, here or on the partner: N-glycosylated; P1 about a tetramer, P2 monomer. Table prints the same sequence for chi1 and chi2 / N-glycosylated; P1 about a tetramer, P2 monomer. Table prints the same sequence for chi1 and chi2) CHPRLSLHRPALEDLLLGSEANLTCTLTGLRDASGVTFTWTPSSGKSAVQGPPERDLCGCYSVSSVLPGCAEPWNHGKTFTCTAAYPESKTPLTATLSKSGNTFRPEVHLLPPPSEELALNELVTLTCLARGFSPKDVLVRWLQGSQELPREKYLTWASRQEPSQGTTTFAVTSILRVAAEDWKKGDTFSCMVGHEALPLAFTNIIMRTIDRTSNQPNLVNLSLNVPQRCMAQ
